Laboratory results: patent publication US20130315910A1 (Xencor, published 2013)

T1: human FcγRIIa (131R), His- and GST-tagged (human, UniProt P12318 34-217)
T1 construct: Expressed in HEK293T cells, purified by nickel chromatography; also called R131 FcγRIIa; not shown: 6xHis and GST tags of the pTT5 vector
T1 sequence (looked up): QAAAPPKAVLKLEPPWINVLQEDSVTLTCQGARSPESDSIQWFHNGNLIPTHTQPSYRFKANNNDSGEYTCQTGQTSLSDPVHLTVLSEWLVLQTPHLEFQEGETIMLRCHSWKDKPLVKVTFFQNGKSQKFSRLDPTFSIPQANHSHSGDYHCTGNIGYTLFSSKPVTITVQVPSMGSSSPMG

T2: human FcγRIIb receptor protein (R&D Systems) (human, UniProt P31994 46-217)
T2 construct: Bought protein injected over captured antibody in Biacore; also called CD32b
T2 sequence (looked up): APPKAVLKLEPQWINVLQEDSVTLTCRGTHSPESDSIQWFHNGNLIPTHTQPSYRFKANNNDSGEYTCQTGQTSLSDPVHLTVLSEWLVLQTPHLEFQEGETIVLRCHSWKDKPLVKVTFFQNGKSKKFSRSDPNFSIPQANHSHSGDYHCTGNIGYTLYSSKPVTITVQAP

T3: mFcγRIV
T3 construct: also called mouse FcγRIV; not shown: C-terminal His and GST tags (named only on our card)
T3 chain: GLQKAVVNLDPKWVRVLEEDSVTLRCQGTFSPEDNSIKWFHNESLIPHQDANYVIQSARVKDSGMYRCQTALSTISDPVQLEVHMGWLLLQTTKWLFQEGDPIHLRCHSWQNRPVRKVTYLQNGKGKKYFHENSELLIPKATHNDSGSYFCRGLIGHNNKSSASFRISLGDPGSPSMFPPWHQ

T4: cynoFcγRIIb (Macaca fascicularis, UniProt A0A140HDP4)
T4 construct: extracellular region, C-terminal His- and GST-tag; also called cynomolgus monkey FcγRIIb
T4 sequence (receptor extracellular region): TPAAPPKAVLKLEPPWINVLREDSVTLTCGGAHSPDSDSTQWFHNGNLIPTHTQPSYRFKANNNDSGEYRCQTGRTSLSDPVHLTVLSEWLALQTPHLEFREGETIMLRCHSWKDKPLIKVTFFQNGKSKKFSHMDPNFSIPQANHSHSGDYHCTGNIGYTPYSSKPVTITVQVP

T5: mFcγRIIb (Mus musculus, UniProt P08101)
T5 construct: extracellular region, C-terminal His- and GST-tag; also called mouse FcγRII
T5 sequence (receptor extracellular region, looked up): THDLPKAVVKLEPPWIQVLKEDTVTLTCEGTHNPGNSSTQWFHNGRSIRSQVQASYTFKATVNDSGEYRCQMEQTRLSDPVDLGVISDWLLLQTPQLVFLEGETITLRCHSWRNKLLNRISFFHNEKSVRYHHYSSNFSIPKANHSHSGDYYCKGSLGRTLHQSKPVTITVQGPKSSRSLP

T6: human FcγRIIa (131H), His- and GST-tagged (human, UniProt P12318 34-217)
T6 construct: also called H131 FcγRIIa; HIIa; not shown: 6xHis and GST tags of the pTT5 vector
T6 sequence (looked up): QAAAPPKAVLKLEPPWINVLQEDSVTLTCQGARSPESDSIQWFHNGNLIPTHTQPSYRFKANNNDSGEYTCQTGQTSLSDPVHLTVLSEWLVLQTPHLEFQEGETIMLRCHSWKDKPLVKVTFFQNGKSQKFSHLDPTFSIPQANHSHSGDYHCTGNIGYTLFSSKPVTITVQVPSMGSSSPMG


Experiments:
[1] = molecular target: T1, human FcγRIIa (131R), His- and …; test: SPR
[2] = molecular target: T2, human FcγRIIb receptor protein (R&D …); test: SPR
[3] = molecular target: T7, human FcγRIIIa (158V), His- and GST-tagged (human, UniProt P08637 17-208); test: SPR
T7 construct: also called V158 FcγRIIIa; VIIIa; not shown: 6xHis and GST tags of the pTT5 vector
T7 sequence (P08637 17-208 F176V): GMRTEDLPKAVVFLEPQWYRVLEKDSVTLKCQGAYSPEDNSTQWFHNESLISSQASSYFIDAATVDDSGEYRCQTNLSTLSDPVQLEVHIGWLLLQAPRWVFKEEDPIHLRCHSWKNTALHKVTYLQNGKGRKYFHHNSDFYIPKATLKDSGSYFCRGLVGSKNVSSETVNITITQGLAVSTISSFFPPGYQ

[4] = molecular target: T8, human FcγRI receptor protein (R&D Systems) (human, UniProt P12314 16-288); test: SPR
T8 construct: also called soluble FcγRI; solFcγRI
T8 sequence (P12314 16-288 limits assumed): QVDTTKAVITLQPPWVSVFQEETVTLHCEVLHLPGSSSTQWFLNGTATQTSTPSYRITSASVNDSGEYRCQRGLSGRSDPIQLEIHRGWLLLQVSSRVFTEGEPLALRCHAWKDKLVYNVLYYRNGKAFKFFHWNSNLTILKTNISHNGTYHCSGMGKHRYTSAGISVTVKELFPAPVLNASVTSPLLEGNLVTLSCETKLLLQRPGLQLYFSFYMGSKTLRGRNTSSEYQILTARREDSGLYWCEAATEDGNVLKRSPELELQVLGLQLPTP

mFcγRIV [5] = molecular target: T3, mFcγRIV; test: SPR, off-rate
Description: (§1) Variants were screened for receptor affinity using Biacore™ technology, also referred to as Biacore herein, a surface plasmon resonance (SPR) based technology for studying biomolecular interactions in real time. SPR measurements were performed using a Biacore 3000 instrument (Biacore, Piscataway, N.J.). A protein A/G (Pierce Biotechnology) CM5 biosensor chip (Biacore) was generated using a standard primary amine coupling protocol. All measurements were performed using HBS-EP buffer (10 mM HEPES pH 7.4, 0.15 M NaCl, 3 mM EDTA, 0.005% vol/vol surfactant P20, Biacore). Antibodies at 20 nM or 50 nM in HBS-EP buffer were immobilized on the protein A/G surface and FcγRs were injected. After each cycle, the surface was regenerated by injecting glycine buffer (10 mM, pH 1.5). Data were processed by zeroing time and response before the injection of FcγR and by subtracting appropriate nonspecific signals (response of reference channel and injection of running buffer). Kinetic analyses were performed by global fitting of binding data with a 1:1 Langmuir binding model using BIAevaluation software (Biacore).
(§2) Variant antibodies were tested for their affinity to mouse or cynologous monkey FcγRs using Biacore SPR as described above. Specifically, antibodies were first immobilized on a protein A/G chip to high density, and then followed by injections of the extracellular domain of the mouse or cynologous monkey FcγR of interest. Both association and dissociation phases were tracked in real time using the Biacore technology.

cynoFcγRIIIa [6] = molecular target: T9, cynoFcγRIIIa (Macaca fascicularis, UniProt Q8SPW2); test: SPR
T9 construct: extracellular region, C-terminal His- and GST-tag; also called cynomolgus monkey FcγRIIIa
T9 sequence (Q8SPW2 17-208): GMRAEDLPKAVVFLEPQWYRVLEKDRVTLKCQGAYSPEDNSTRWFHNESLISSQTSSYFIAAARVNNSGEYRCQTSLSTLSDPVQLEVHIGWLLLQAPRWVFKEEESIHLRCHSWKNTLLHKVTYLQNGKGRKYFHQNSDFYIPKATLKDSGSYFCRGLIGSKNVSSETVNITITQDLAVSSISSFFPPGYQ

cynoFcγRIIb [7] = molecular target: T4, cynoFcγRIIb; test: SPR
mFcγRIIb [8] = molecular target: T5, mFcγRIIb; test: SPR
[9] = molecular target: T6, human FcγRIIa (131H), His- and …; test: SPR
cynoFcγRIIb [10] = molecular target: T4, cynoFcγRIIb; test: SPR, off-rate
Description: as §1, §2

mFcγRIIb [11] = molecular target: T5, mFcγRIIb; test: SPR, off-rate
Description: as §1, §2

mFcγRIV [12] = molecular target: T3, mFcγRIV; test: SPR
cynoFcγRIIIa [13] = molecular target: T9, cynoFcγRIIIa; test: SPR, off-rate
Description: as §1, §2
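Throughout, for Fold vs WT IgG1 (off-rate): fold improvement over WT IgG1 so higher means slower dissociation than WT.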

Binder	Fold vs WT IgG1 [1] [fold]	Kd [1] [nM]	Fold vs WT IgG1 [2] [fold]	Kd [2] [nM]	Fold vs WT IgG1 [3] [fold]	Kd [3] [nM]	Fold vs WT IgG1 [4] [fold]	Kd [4] [nM]	binding result (mFcγRIV [5])	Fold vs WT IgG1 (off-rate) (cynoFcγRIIIa [6]) [fold]	Fold vs WT IgG1 (off-rate) (cynoFcγRIIb [7]) [fold]	Fold vs WT IgG1 (off-rate) (mFcγRIIb [8]) [fold]	Fold vs WT IgG1 [9] [fold]	Kd [9] [nM]	binding result (cynoFcγRIIb [10])	binding result (mFcγRIIb [11])	Fold vs WT IgG1 (off-rate) (mFcγRIV [12]) [fold]	binding result (cynoFcγRIIIa [13])
L234D/S267E (antibody, human IgG1, kappa, HuAM4G7 anti-CD19 IgG1 (m1) with these Fc substitutions, EU index; copies: 2 + 2) heavy: not shown light: DIVMTQSPATLSLSPGERATLSCRSSKSLQNVNGNTYLYWFQQKPGQSPQLLIYRMSNLNSGVPDRFSGSGSGTEFTLTISSLEPEDFAVYYCMQHLEYPITFGAGTKLEIKRTVAAPSVFIFPPSDEQLKSGTASVVCLLNNFYPREAKVQWKVDNALQSGNSQESVTEQDSKDSTYSLSSTLTLSKADYEKHKVYACEVTHQGLSSPVTKSFNRGEC	12.7	67.7	21.7	67.8	0.14	1370	0.0286	11.5	no binding	0.116	0.495	1.04						
S267E/N325L (antibody, human IgG1, kappa, HuAM4G7 anti-CD19 IgG1 (m1) with these Fc substitutions, EU index; copies: 2 + 2) heavy: not shown light: DIVMTQSPATLSLSPGERATLSCRSSKSLQNVNGNTYLYWFQQKPGQSPQLLIYRMSNLNSGVPDRFSGSGSGTEFTLTISSLEPEDFAVYYCMQHLEYPITFGAGTKLEIKRTVAAPSVFIFPPSDEQLKSGTASVVCLLNNFYPREAKVQWKVDNALQSGNSQESVTEQDSKDSTYSLSSTLTLSKADYEKHKVYACEVTHQGLSSPVTKSFNRGEC	41.5	20.7	31.5	46.6											no binding	no binding	0.24	no binding
L234G (antibody, human IgG1, kappa, HuAM4G7 anti-CD19 IgG1 (m1) with this Fc substitution, EU index; copies: 2 + 2) heavy: not shown light: DIVMTQSPATLSLSPGERATLSCRSSKSLQNVNGNTYLYWFQQKPGQSPQLLIYRMSNLNSGVPDRFSGSGSGTEFTLTISSLEPEDFAVYYCMQHLEYPITFGAGTKLEIKRTVAAPSVFIFPPSDEQLKSGTASVVCLLNNFYPREAKVQWKVDNALQSGNSQESVTEQDSKDSTYSLSSTLTLSKADYEKHKVYACEVTHQGLSSPVTKSFNRGEC	0.0859	10000	0.147	10000					no binding	0.113					no binding	no binding		
L234Q (antibody, human IgG1, kappa, HuAM4G7 anti-CD19 IgG1 (m1) with this Fc substitution, EU index; copies: 2 + 2) heavy: not shown light: DIVMTQSPATLSLSPGERATLSCRSSKSLQNVNGNTYLYWFQQKPGQSPQLLIYRMSNLNSGVPDRFSGSGSGTEFTLTISSLEPEDFAVYYCMQHLEYPITFGAGTKLEIKRTVAAPSVFIFPPSDEQLKSGTASVVCLLNNFYPREAKVQWKVDNALQSGNSQESVTEQDSKDSTYSLSSTLTLSKADYEKHKVYACEVTHQGLSSPVTKSFNRGEC	0.0372	23100	0.147	10000					no binding	0.379					no binding	no binding		
G236F (antibody, human IgG1, kappa, HuAM4G7 anti-CD19 IgG1 (m1) with this Fc substitution, EU index; copies: 2 + 2) heavy: not shown light: DIVMTQSPATLSLSPGERATLSCRSSKSLQNVNGNTYLYWFQQKPGQSPQLLIYRMSNLNSGVPDRFSGSGSGTEFTLTISSLEPEDFAVYYCMQHLEYPITFGAGTKLEIKRTVAAPSVFIFPPSDEQLKSGTASVVCLLNNFYPREAKVQWKVDNALQSGNSQESVTEQDSKDSTYSLSSTLTLSKADYEKHKVYACEVTHQGLSSPVTKSFNRGEC	0.00859	100000	0.0147	100000					no binding	0.138					no binding	no binding		

Continued by falling Kd [1], values first:

Fold vs WT IgG1 [1] [fold]	Kd [1] [nM]	Fold vs WT IgG1 [2] [fold]	Kd [2] [nM]	Fold vs WT IgG1 [3] [fold]	Kd [3] [nM]	Fold vs WT IgG1 [4] [fold]	Kd [4] [nM]	binding result (mFcγRIV [5])	Fold vs WT IgG1 (off-rate) (cynoFcγRIIIa [6]) [fold]	Fold vs WT IgG1 (off-rate) (cynoFcγRIIb [7]) [fold]	Fold vs WT IgG1 (off-rate) (mFcγRIIb [8]) [fold]	Fold vs WT IgG1 [9] [fold]	Kd [9] [nM]	binding result (cynoFcγRIIb [10])	binding result (mFcγRIIb [11])	Fold vs WT IgG1 (off-rate) (mFcγRIV [12]) [fold]	binding result (cynoFcγRIIIa [13])	Binder
0.166	5180	0.351	4180	0.314	609	0.0179	18.4		0.53			0.0486	13300	no binding	no binding	0.496		L235A (antibody, human IgG1, kappa, HuAM4G7 anti-CD19 IgG1 (m1) with this Fc substitution, EU index; copies: 2 + 2) heavy: not shown light: DIVMTQSPATLSLSPGERATLSCRSSKSLQNVNGNTYLYWFQQKPGQSPQLLIYRMSNLNSGVPDRFSGSGSGTEFTLTISSLEPEDFAVYYCMQHLEYPITFGAGTKLEIKRTVAAPSVFIFPPSDEQLKSGTASVVCLLNNFYPREAKVQWKVDNALQSGNSQESVTEQDSKDSTYSLSSTLTLSKADYEKHKVYACEVTHQGLSSPVTKSFNRGEC
1.02	838	5.58	263											no binding	no binding	0.347	no binding	L235R (antibody, human IgG1, kappa, HuAM4G7 anti-CD19 IgG1 (m1) with this Fc substitution, EU index; copies: 2 + 2) heavy: not shown light: DIVMTQSPATLSLSPGERATLSCRSSKSLQNVNGNTYLYWFQQKPGQSPQLLIYRMSNLNSGVPDRFSGSGSGTEFTLTISSLEPEDFAVYYCMQHLEYPITFGAGTKLEIKRTVAAPSVFIFPPSDEQLKSGTASVVCLLNNFYPREAKVQWKVDNALQSGNSQESVTEQDSKDSTYSLSSTLTLSKADYEKHKVYACEVTHQGLSSPVTKSFNRGEC
36.5	23.5	11.4	129					no binding	0.327					no binding	no binding			G236E/S267E (antibody, human IgG1, kappa, HuAM4G7 anti-CD19 IgG1 (m1) with these Fc substitutions, EU index; copies: 2 + 2) heavy: not shown light: DIVMTQSPATLSLSPGERATLSCRSSKSLQNVNGNTYLYWFQQKPGQSPQLLIYRMSNLNSGVPDRFSGSGSGTEFTLTISSLEPEDFAVYYCMQHLEYPITFGAGTKLEIKRTVAAPSVFIFPPSDEQLKSGTASVVCLLNNFYPREAKVQWKVDNALQSGNSQESVTEQDSKDSTYSLSSTLTLSKADYEKHKVYACEVTHQGLSSPVTKSFNRGEC
